Results from the nanobody polyreactivity screen of Harvey et al. (2022).

Test: yeast display, Sf9 membrane polyspecificity reagent, FACS + sequencing; frameworks hold sequencing errors
Method in brief: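 Polyreactivity labels are assigned by the sorting gate from which each nanobody was recovered. The gates were low and high (top ~1%), set on anti-HA fluorescence for expression and streptavidin fluorescence for reagent binding. Before sorting, galactose-induced (36–48 hours) yeast display cells were stained for 1 hour at 4 °C with 10% biotinylated, detergent-solubilized Sf9 membrane reagent.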

Question: With “QVQLEESGGGLVHAGGSLRLSCAASGFTFYSYAMGWYRQAPGKERELVAAITQSGGSTYYADSVKGRFTISRDNAKNTVYFQMNSLKPEDTAVYYCAAGRRSSWRYYLWYDYWGQGTQVTVSS” as the sequence, how does the “polyreactivity (PSR sort gate)” value read?
Answer: low polyreactivity

Question: With “QVQLEESGGGLVHAGGSLRLTCDAYGYIFALNPIVWNRQAPGNESEVVAAINDSGDSTYYADSLKGRFTISRDNSKNTVYLQMNSLNPEDSAVYYCAADTRYRYGAFPYYEYDNWGQGTQVTVSS” as the sequence, how does the “polyreactivity (PSR sort gate)” value read?
Answer: low polyreactivity

Question: Which “polyreactivity (PSR sort gate)” value does the source give for “QVQLEESGGGLVKARGSLRLSCAASGRTFNFYYMGWYRQAPGKERELVAAISSSGGSTYYADSVKGRFTISRDTAKYTVYLQMISLIPEDTAVYYCAKGPLYSLCFQHDAPYRYGYWGQATQVTVSS” here?
Answer: low polyreactivity

Question: With “QVQLEESGGGLVQAEGSLRLICAASGSTFVYAMGWYRQSPGKERELVAAISYSGGSTYYADSVKGRFTISRDNAKTTVYLQMNSLKPEDTAVYYCAAYLVISAQRYYYWGQGTQVTVSS” as the sequence, how does the “polyreactivity (PSR sort gate)” value read?
Answer: high polyreactivity

Question: Which “polyreactivity (PSR sort gate)” value does the source give for “QVQLEESGGGLVQAGCSLRLSCAASGSTFVRYAMGWYRQAPGKERELVAAISWSGASTYYADSVKGRFTISRDNAKNTVYLQMNSLKPEDTAVYYCAARSRWYDAAGYQKYYYWGQGSQVTVSS” here?
Answer: high polyreactivity

Question: With “QVQLEESGGGLVQAGGRLRLSCAASGIIYDFYAMGWYRQAPGKERELVAAITSSGGSTYYADSVKGRFTISRDNAKKTVYLQMNSLKPEDTAVDYCAAEYTIYGTDQRYYYWGQGTQVTVSS” as the sequence, how does the “polyreactivity (PSR sort gate)” value read?
Answer: low polyreactivity

Question: Which “polyreactivity (PSR sort gate)” value does the source give for “QVQLEESGGGLVQAGGRLRLSCAASGRIIYGYAMGWYRQAPGKERELVAAITATYYADSVKGRFTISRDNAKNTVYLQMNSLKPEDTAVYYCYAYLSPKQPLSPPDPTFEGGYWGQGTQVTVSS” here?
Answer: low polyreactivity

Question: Which “polyreactivity (PSR sort gate)” value does the source give for “QVQLEESGGGLVQAGGRLRLSCAASGRIYTKYAMGWYRQAPGKERELVAAISGSGGNTYYADSVKGRFTISRDNAKNTVYLQMNSLKPEDTAVYYCNRAKNAYLMDYWGQGTQVTVSS” here?
Answer: high polyreactivity

Question: Which “polyreactivity (PSR sort gate)” value does the source give for “QVQLEESGGGLVQAGGRLRLSCAASGSIFGFYAMGWYRQAPGKERELVASITISGGSTYYADSVKGRFTISRDNAKNTVYLQMNSLKPEDTAVYYGAARRYWDYNYWGQGTQVTVSS” here?
Answer: low polyreactivity

Question: With “QVQLEESGGGLVQAGGRLRLSCAASGSIWSYAMGWYRQAPGKERELVAAISSTGGSTYYADSVKGRFTISRDNAKNTVYLQMNSLKPEDTAVYYCAKGRRYDQSHYNYWGQGTQVNVSS” as the sequence, how does the “polyreactivity (PSR sort gate)” value read?
Answer: high polyreactivity

Question: For “QVQLEESGGGLVQAGGSHRLSCAASGPTFRRNVMGWSRQAPGKEREFVAAITWSGGNTYYADSVKGRITISRDNAKYTVFLQMYSLKREDTAVYYCNARSAIWGWGYGSYDYWGLGTQVTVSS”, which “polyreactivity (PSR sort gate)” value is on record?
Answer: low polyreactivity

Question: With “QVQLEESGGGLVQAGGSIRLSCAASGSTLVGNAMGWYRQAPGKERELVATIDLSDDITYYADSVKGRFTSSRDNAKNTFYLQMNSLKPEDTAVYYCSAEYYLYSTYTVSYGKYDYWGQGTQGTVSS” as the sequence, how does the “polyreactivity (PSR sort gate)” value read?
Answer: high polyreactivity

Question: For “QVQLEESGGGLVQAGGSLRIICAASGRTFQLYAMGWYRQAPGKERELVAAITWSSGRTSYADSVKGRFTISRDNAKNTVYLQMNSLKPEDTAVYYCAADVWGGLLPGYDYWGQGTQVTVSS”, which “polyreactivity (PSR sort gate)” value is on record?
Answer: high polyreactivity

Question: For “QVQLEESGGGLVQAGGSLRISCAASGSIVRYKAMGWYRQAHGKERELVAAISSRGGSTYYADSVKGRFTISRDNAKNTVYLQMNSLKPEDTAVYYCNVRWTYKYDYWGQGTQVTVSS”, which “polyreactivity (PSR sort gate)” value is on record?
Answer: high polyreactivity

Question: Which “polyreactivity (PSR sort gate)” value does the source give for “QVQLEESGGGLVQAGGSLRLCCAASGFTFDYNAKGWYRQPPGKLRDLVAVISSSGSRTYYADSVKGRFTISRDYAKNTVYLQMNSLKPEDSAVYYWAGARIGTSDYWGQGTQVTESS” here?
Answer: high polyreactivity

Question: Which “polyreactivity (PSR sort gate)” value does the source give for “QVQLEESGGGLVQAGGSLRLCCAASGRTFYYAMGWYRQATGKDRYADSVKGRFTISRDNAKNTVYLQMNSLKPDDTSVYYCAAKVTEPPSLDDSDYWGQGTQVTVSS” here?
Answer: low polyreactivity

Question: For “QVQLEESGGGLVQAGGSLRLICAASGGTISKYAMGWYRQAPGTEMELVAAITYSSGSTYYADSVKGRFTISRDNAKNTVYLQMNSLKPEDTAVYYCAARSGLYWWRFDYWGQGTLVTVSS”, which “polyreactivity (PSR sort gate)” value is on record?
Answer: high polyreactivity

Question: For “QVQLEESGGGLVQAGGSLRLICAASGRIFGVNAMGWYRQAHGKERELVAVISSGGSTYYADSVKGRFTISRDNAKNTVYLQMNSLKPEDTAVYYCNAVVGSWFPYNLSDYWGEGTQVTVSS”, which “polyreactivity (PSR sort gate)” value is on record?
Answer: low polyreactivity

Question: For “QVQLEESGGGLVQAGGSLRLICAASGRTFSGNTMGWYIQAPGKERELVAAITGRGGSTYYADSEKGRFTISRDNEKNTVYLQMNSLKPVDTAVYYCAALRYTFAGRFDYWGQGTQVTVSS”, which “polyreactivity (PSR sort gate)” value is on record?
Answer: high polyreactivity

Question: For “QVQLEESGGGLVQAGGSLRLICAASGRTFVYYAMGWYRQAPGKERELVAAISTGGSTNYADSVKGRFTISRDNAKNTVYLQMNSLKTEDTAVYYCAAQYYISISKYDYWGQGTQVTVSS”, which “polyreactivity (PSR sort gate)” value is on record?
Answer: low polyreactivity

Question: Which “polyreactivity (PSR sort gate)” value does the source give for “QVQLEESGGGLVQAGGSLRLICADSGFTFVYYARGWYRQAPGKERELVATISGNGGRTYYADSVKGRFTISRDNAKNTVYLQMNSLKPEDTAVYYCNADDPYLYYDSYDYWGQGTQVTVSS” here?
Answer: low polyreactivity

Question: For “QVQLEESGGGLVQAGGSLRLIWAASGFIFRTYTMGWYRQAPGKERELVATIDSSGGSTYYADSVKGRFTISRDNAKNTVYLQMNSLKPEDTAVYYCNADLRELSPWYWYSGEMDYWGQGTQVTVSS”, which “polyreactivity (PSR sort gate)” value is on record?
Answer: low polyreactivity

Question: With “QVQLEESGGGLVQAGGSLRLSCAASGFICKRYARGWYRQAPGKERELVAAITTSGGRTYYADSVKGRFTISRDNAKNTVYLQMNSLIPEDTAVYYCAAAQPGTNAYRVGSWGQGTQVTVSS” as the sequence, how does the “polyreactivity (PSR sort gate)” value read?
Answer: high polyreactivity

Question: For “QVQLEESGGGLVQAGGSLRLSCAASGFIFAQYAMGWYRKAPRKDRELVAAISWSGGSTYYADSVKGRFTISRDNAKNTVYLQMNSLKPEDTAVYYCAALFRNKSRYRYGYWGQGTQVTVSS”, which “polyreactivity (PSR sort gate)” value is on record?
Answer: high polyreactivity

Question: With “QVQLEESGGGLVQAGGSLRLSCAASGFIFPYYAMGWYRQAHGQERELVAAISRSGGRTYYADSVKGRFTISRDNAKNTVYLQMNSLKPEDTAVYYCNAPFQSEPFDYWGQGTQVTVSS” as the sequence, how does the “polyreactivity (PSR sort gate)” value read?
Answer: high polyreactivity

Question: For “QVQLEESGGGLVQAGGSLRLSCAASGFIFRYYAMGWYRQAPGKERELVAAISWSGGSTYYADSVKGRFTISRDNAKNTVYLQMNSLKPEETAVDYGAADRYAILFYAEDYWGQGTQVTVSS”, which “polyreactivity (PSR sort gate)” value is on record?
Answer: low polyreactivity

Question: Which “polyreactivity (PSR sort gate)” value does the source give for “QVQLEESGGGLVQAGGSLRLSCAASGFIFVANAMGWYIQAPWKERELVAAISRRGGSTYYADSVKGRFTISRDNAKNTVYLQMNSLKPEDTAVYYCNAYRRGLSGYGYWGQGTQVTVSS” here?
Answer: high polyreactivity

Question: Which “polyreactivity (PSR sort gate)” value does the source give for “QVQLEESGGGLVQAGGSLRLSCAASGFIFWANAMGWYRQAPGKERELVAAIRYSGGRTYYADSVKGRFTSSRDTAKNTFFLLMNSLIPEDTAVYYCAKEYKNYGGFVVEYDYWGQGTQVNVSS” here?
Answer: low polyreactivity

Question: With “QVQLEESGGGLVQAGGSLRLSCAASGFILCDYAMGWYRQATGKERELVAGINYRGGSTHYADSVKGRFTISRDIAKNTVYLQMNSLKPEDTAVYYCSKRRQSYPYKTSTWYSHYSWGQGTQVTVSS” as the sequence, how does the “polyreactivity (PSR sort gate)” value read?
Answer: high polyreactivity

Question: Which “polyreactivity (PSR sort gate)” value does the source give for “QVQLEESGGGLVQAGGSLRLSCAASGFILSGNTMGWYRPAPGKERELVAGITYTGGSTYYADSVKGRFTISRDNAKNTVYLQMNSLKPEDTAVYYCAVDVAGGEGMDYWGHGTQVTVSS” here?
Answer: low polyreactivity

Question: Which “polyreactivity (PSR sort gate)” value does the source give for “QVQLEESGGGLVQAGGSLRLSCAASGFIYAHYAMGWYRQAPGKERELVAAISSRGGSTYYADSVKGRFTISRDYAKNPVYLQINSLKPEDTAVYYCAKARHRPARGYEYWGLGTQVTVSS” here?
Answer: high polyreactivity

Question: For “QVQLEESGGGLVQAGGSLRLSCAASGFTFAYYAMGWYSQAPGKERELVAAISRSGGRTNYADSVKGRFTISRDNAKNTVYLQMNSLKPEETAVYYCNKQQTPRYWWSPYGGYDYWGQGTQGTVSS”, which “polyreactivity (PSR sort gate)” value is on record?
Answer: high polyreactivity

Question: With “QVQLEESGGGLVQAGGSLRLSCAASGFTFRAYAMGWYRQAPGKERELVAANTYSGDRTYYADSVKGRFTITRDNAKKTVYLQMNSLKPEDTAVYYCAAYGAKVNRPGYYYWGQGTQVTVSS” as the sequence, how does the “polyreactivity (PSR sort gate)” value read?
Answer: high polyreactivity

Question: With “QVQLEESGGGLVQAGGSLRLSCAASGGIFGWYTMGWNRQAPGKERELVAAINFSGSRTYYADSVKGRFTISRHNAKNTVYLQMNSLKPEDTAVYYCNAVYHQFRVEYWGQGTQVTVSS” as the sequence, how does the “polyreactivity (PSR sort gate)” value read?
Answer: high polyreactivity

Question: For “QVQLEESGGGLVQAGGSLRLSCAASGGIFPAYAMGWYRQAPGKERELVASISANGGRTYYADSVKGRFTISRDNAKNTVYLQMNSLKPEDTAVYYCNASSLSGSWRFYYWGQGTQVTVSS”, which “polyreactivity (PSR sort gate)” value is on record?
Answer: high polyreactivity

Question: With “QVQLEESGGGLVQAGGSLRLSCAASGITFEAYAMGWYRQAPGKERELVAAIRSSGTSTYYADSVMGRFTISRDNAKNTVYLQMNSLKPEDTAVYYCNRARSSSRYDYWGQGTQVTVSS” as the sequence, how does the “polyreactivity (PSR sort gate)” value read?
Answer: low polyreactivity

Question: With “QVQLEESGGGLVQAGGSLRLSCAASGITFVTYAMGWYRQAPGKERELVAAISRSGGRTYYADSVKGRFTISRDNAKNTVYLQMNSLKPEDTAVYYCAAERKNKYDYWGQGTQVTVSS” as the sequence, how does the “polyreactivity (PSR sort gate)” value read?
Answer: high polyreactivity

Question: With “QVQLEESGGGLVQAGGSLRLSCAASGITFYYNDMGWYRQAPGKERELVAAISSGGTTNYADSVKGRFTISRDNAKNTFYLAMNSLKPEDTAVYYCATGYAEPEWDPFVSDYDYWGQGTQVTVSS” as the sequence, how does the “polyreactivity (PSR sort gate)” value read?
Answer: low polyreactivity

Question: Which “polyreactivity (PSR sort gate)” value does the source give for “QVQLEESGGGLVQAGGSLRLSCAASGITIRIYAKGCYRQAPGKERELVAGISSSGSTNYADSVKGRFTISRDNAKNTVYLQMNSLKPEDTAVYYCAADAFYIFDYWGQGTQVTVSS” here?
Answer: high polyreactivity

Question: For “QVQLEESGGGLVQAGGSLRLSCAASGLIFVDNAMGGSRQATGKERALVASIDSGGSTNYADSVKGRFTISRDNAKNTFYLQMNSLKPEDTAVYYCSADWIYAPWYYQESVEYYYWGQGTQVTVSS”, which “polyreactivity (PSR sort gate)” value is on record?
Answer: low polyreactivity

Question: For “QVQLEESGGGLVQAGGSLRLSCAASGLIFWAYAMGWYRQAPGKDTELVAAINWRGGSTYYADSVKGRFTISRDNAKNTVYLQMNSLKPEDTAVYFCAGDSSYDEYDYWGQGTQVTVSS”, which “polyreactivity (PSR sort gate)” value is on record?
Answer: low polyreactivity

Question: With “QVQLEESGGGLVQAGGSLRLSCAASGMILTYYAMAWNRQAPGKERELVAGISSGTNTNYADSVKWRFTISRDNAKNTVYLQMNSLKPEDTAVYYCANTRGYEFVAYGYWGQGTQVNVSS” as the sequence, how does the “polyreactivity (PSR sort gate)” value read?
Answer: low polyreactivity

Question: With “QVQLEESGGGLVQAGGSLRLSCAASGNIFYYYAMGWYRQAPGKEREVVATITSGGSTNYADSVKGRFTISRDNAKNTVYLQMNSLKPEDTAVYYCAADRRRTYYWLSSYFEGYYWGQGTQVTVSS” as the sequence, how does the “polyreactivity (PSR sort gate)” value read?
Answer: low polyreactivity
